What was measured:
[1] = target: T1, botulinum neurotoxin serotype A light chain residues 1-448 (Clostridium botulinum, BoNT/A1 …, UniProt P0DPI0); test: flow cytometry on cells
[2] = target: T1, botulinum neurotoxin serotype A light …; test: KinExA
Target sequence in this assay (P0DPI0 1-448): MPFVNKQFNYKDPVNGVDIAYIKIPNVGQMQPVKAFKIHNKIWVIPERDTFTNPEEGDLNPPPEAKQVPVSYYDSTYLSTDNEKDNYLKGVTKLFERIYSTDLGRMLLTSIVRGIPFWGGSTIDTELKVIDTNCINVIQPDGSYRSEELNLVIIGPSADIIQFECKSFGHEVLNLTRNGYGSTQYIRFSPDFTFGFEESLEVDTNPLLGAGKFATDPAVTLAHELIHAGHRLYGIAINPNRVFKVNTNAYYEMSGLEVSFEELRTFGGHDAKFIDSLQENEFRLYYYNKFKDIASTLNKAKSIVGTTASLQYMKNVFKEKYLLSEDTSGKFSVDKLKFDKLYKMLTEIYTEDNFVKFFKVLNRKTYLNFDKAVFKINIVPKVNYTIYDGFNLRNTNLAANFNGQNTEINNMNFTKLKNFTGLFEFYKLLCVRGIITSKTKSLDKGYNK

[3] = target: truncated BoNT/A Lc containing residues 1-425 (Clostridium botulinum, UniProt P0DPI0); test: […]
truncated BoNT/A Lc containing residues 1-425, sequence (P0DPI0 1-425): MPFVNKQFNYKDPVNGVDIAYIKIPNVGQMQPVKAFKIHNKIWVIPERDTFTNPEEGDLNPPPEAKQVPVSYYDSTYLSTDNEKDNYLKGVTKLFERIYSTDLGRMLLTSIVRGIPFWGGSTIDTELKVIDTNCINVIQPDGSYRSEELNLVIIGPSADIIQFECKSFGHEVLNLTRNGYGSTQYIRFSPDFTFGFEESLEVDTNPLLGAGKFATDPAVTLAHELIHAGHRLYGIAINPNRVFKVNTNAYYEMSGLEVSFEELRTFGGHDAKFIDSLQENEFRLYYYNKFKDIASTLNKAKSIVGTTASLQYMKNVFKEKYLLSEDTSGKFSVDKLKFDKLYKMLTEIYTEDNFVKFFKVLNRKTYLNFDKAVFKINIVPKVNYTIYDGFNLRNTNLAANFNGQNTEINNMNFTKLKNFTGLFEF

B1: Aa1 VHH, yeast displayed (VHH)
VHH: AVQLVDSGGGTLQAGKSLRLSCAISGLAFDGGAMGSEHRLTAGAMGWFRQAPGKDREFVAAISPRTDETYYAESLEGRFSVSRDAAATMVFLQADNVRLDDTASYYCAADEDVTPRVMGVIPHADHWGQGTLVTVSS
[1]
  Kd: 0.03 nM

B2: Aa1 VHH, purified (VHH)
VHH: AVQLVDSGGGTLQAGKSLRLSCAISGLAFDGGAMGSEHRLTAGAMGWFRQAPGKDREFVAAISPRTDETYYAESLEGRFSVSRDAAATMVFLQADNVRLDDTASYYCAADEDVTPRVMGVIPHADHWGQGTLVTVSS
[2]
  Kd: 0.147 nM
  koff: 0.00666 s⁻¹
  kon: 4.39e+07 M⁻¹ s⁻¹

B3: Aa1 VHH, for crystal growing (VHH)
VHH: AVQLVDSGGGTLQAGKSLRLSCAISGLAFDGGAMGSEHRLTAGAMGWFRQAPGKDREFVAAISPRTDETYYAESLEGRFSVSRDAAATMVFLQADNVRLDDTASYYCAADEDVTPRVMGVIPHADHWGQGTLVTVSS
[3]
  stoichiometry N: 1

— publication PMC2903050 (Journal of molecular biology, 2010)
